Test results: publication PMC3105431

How the values were obtained:
[1] = target: U2AF65;U2AF35 (human;human, UniProt P26368;Q01081 1-475;1-240, |); assay: EMSA
[2] = target: U2AF65 (human, UniProt P26368 1-475); assay: EMSA
Chain of U2AF65 (P26368 whole entry, one chain of several): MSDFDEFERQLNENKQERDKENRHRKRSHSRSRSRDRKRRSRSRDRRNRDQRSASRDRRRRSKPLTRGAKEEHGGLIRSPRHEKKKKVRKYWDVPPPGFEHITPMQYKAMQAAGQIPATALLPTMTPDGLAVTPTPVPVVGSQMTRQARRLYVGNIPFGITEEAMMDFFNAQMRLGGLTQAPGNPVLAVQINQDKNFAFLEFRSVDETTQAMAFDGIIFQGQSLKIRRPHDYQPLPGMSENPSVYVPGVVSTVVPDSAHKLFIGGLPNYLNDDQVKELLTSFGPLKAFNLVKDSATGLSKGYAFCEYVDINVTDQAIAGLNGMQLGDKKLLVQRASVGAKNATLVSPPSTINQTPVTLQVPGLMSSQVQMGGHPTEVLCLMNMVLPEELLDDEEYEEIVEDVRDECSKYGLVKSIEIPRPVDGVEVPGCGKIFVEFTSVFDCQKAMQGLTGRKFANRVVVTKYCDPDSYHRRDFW

Chain of U2AF65;U2AF35 (P26368 whole entry, chain 1 of 2): as the sequence (P26368 whole entry, one chain of several) above
Chain of U2AF65;U2AF35 (Q01081 whole entry, chain 2 of 2): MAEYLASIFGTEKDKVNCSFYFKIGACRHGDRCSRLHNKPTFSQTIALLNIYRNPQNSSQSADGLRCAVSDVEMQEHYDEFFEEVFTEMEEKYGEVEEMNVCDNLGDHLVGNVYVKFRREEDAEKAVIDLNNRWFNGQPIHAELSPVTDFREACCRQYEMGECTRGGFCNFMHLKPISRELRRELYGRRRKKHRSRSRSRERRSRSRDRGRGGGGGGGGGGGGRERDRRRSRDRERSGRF

GGGAGACAGGCUUACGCAUUCGUCUAUCUUUCGCAUAGUUUGGUCCA (ssRNA) [FECH mutant (PT, E+1 G>U)]
binding result [1]: no binding | binding result [2]: no binding
